According to patent publication US20030021776:

Legend:
[1] = target: VEGF 1 (VZ-8) (synthetic) (UniProt P08047); assay: EMSA
[2] = target: VEGF 1A (synthetic) (UniProt P08047); assay: EMSA
[3] = target: VEGF 1* (synthetic) (UniProt P08047); assay: EMSA
[4] = tested on: EP10A (synthetic); assay: EMSA
[5] = tested on: mVZ+57 (VG10A/8A, MVG) (synthetic); assay: EMSA; settings: text printed as Kds of 0.031 nM for the designed ZFPs; 100 mM KCl, 1 mM MgCl2, Zn
[6] = tested on: SAN 16A (synthetic); assay: EMSA
[7] = tested on: PDF 5A (VZ+590) (synthetic); assay: EMSA
[8] = tested on: VG 8A (VZ-475) (synthetic); assay: EMSA
[9] = tested on: HP38 4A (synthetic); assay: EMSA
[10] = tested on: VOP 30A-4 (VZ+42/+530, mVZ+509) (synthetic); assay: EMSA; settings: 170 mM KCl, 1.7 mM MgCl2, Zn
[11] = target: VEGF 1C (synthetic) (UniProt P08047); assay: EMSA
[12] = tested on: RAT 24A (synthetic); assay: EMSA
[13] = tested on: HUM 17A (VZ+472) (synthetic); assay: EMSA; settings: F3 printed RSDNLTZ, listing RSDNLTQ
[14] = tested on: VG10A/8A-VP16 (synthetic); assay: cell_activity; settings: mouse VEGF promoter reporter activation in mouse cells
[15] = target: HBV 3 (synthetic) (UniProt P08047); assay: EMSA
[16] = tested on: GATA82Z678 (synthetic); assay: EMSA
[17] = target: VEGF 1D (synthetic) (UniProt P08047); assay: EMSA
[18] = target: ZEN-7A 1 (VZ-573) (synthetic) (UniProt P08047); assay: EMSA

HUM 17A (VZ+472) (synthetic), sequence (chain, as listed by the source): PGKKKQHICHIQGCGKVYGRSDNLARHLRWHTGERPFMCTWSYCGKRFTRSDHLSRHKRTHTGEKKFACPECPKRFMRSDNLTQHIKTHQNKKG
RAT 24A (synthetic), sequence (chain, as listed by the source): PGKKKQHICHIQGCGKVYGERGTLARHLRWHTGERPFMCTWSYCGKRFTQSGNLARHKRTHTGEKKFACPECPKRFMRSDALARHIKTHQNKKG
SAN 16A (synthetic), sequence (chain, as listed by the source): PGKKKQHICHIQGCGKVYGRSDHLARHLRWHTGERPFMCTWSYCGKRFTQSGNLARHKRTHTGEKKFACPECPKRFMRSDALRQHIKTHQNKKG
EP10A (synthetic), sequence (chain, as listed by the source): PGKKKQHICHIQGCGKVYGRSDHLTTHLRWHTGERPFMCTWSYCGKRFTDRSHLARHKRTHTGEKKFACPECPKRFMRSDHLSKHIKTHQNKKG
VG 8A (VZ-475) (synthetic), sequence (chain, as listed by the source): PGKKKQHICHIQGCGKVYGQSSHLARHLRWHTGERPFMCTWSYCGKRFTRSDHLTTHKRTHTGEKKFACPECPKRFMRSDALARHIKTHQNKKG
GATA82Z678 (synthetic), sequence (chain, as listed by the source): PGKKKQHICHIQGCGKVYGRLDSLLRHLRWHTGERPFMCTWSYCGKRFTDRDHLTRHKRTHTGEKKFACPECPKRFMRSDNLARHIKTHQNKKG
VOP 30A-4 (VZ+42/+530, mVZ+509) (synthetic), sequence (chain, as listed by the source): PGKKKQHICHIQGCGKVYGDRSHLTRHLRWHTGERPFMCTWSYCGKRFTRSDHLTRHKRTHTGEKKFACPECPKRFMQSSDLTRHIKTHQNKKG
PDF 5A (VZ+590) (synthetic), sequence (chain, as listed by the source): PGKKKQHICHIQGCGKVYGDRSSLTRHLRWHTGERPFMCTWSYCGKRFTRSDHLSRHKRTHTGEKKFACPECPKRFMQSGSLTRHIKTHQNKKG
HP38 4A (synthetic), sequence (chain, as listed by the source): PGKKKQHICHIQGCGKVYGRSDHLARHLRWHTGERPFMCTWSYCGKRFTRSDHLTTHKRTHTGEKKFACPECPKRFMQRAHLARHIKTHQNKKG

“GGGGAGGVK (double strand) [VEGF 1 / 1* / 1A target]” was tested, and the Kd [1] was 2.83 nM, the Kd [2] was 0.2 nM and the Kd [3] was 3 nM.
“KGGGGCTGG (double strand) [EP10A target]” was tested, and the Kd [4] was 0.35 nM.
With “TGAGCGGCGGCAGCGGAGC (double strand) [mVZ+57 target]” the Kd [5] was less than 0.031 nM.
Sequence “AKGGAAGGG (double strand) [SAN 16A target]” has a Kd [6] of 1.03 nM.
“GYAGGGGCC (double strand) [PDF 5A target]” was tested, and the Kd [7] was 0.23 nM.
Sequence “GDGTGGGGN (double strand) [VG 8A target]” has a Kd [8] of 0.35 nM.
Sequence “GGDTGGGGG (double strand) [HP38 4A target]” has a Kd [9] of 0.74 nM.
Sequence “GCTGGGGGCK (double strand) [VZ+42/+530 target]” has a Kd [10] of less than 0.02 nM.
“GGGGVGGAT (double strand) [VEGF 1C target]” gave a Kd [11] of 1 nM.
“GDGGAAGHC (double strand) [RAT 24A target]” showed a Kd [12] of less than 0.02 nM.
With “ARGGGGGAG (double strand) [HUM 17A target]” the Kd [13] was less than 0.02 nM.
Sequence “TGAGCGGCGGCAGCGGAG (double strand) [VG10A/8A target]” has an activity [14] of 29 fold.
Sequence “GGGGGAGGW (double strand) [HBV 3 target]” has a Kd [15] of 30 nM.
“GAGKGKGYG (double strand) [GATA82Z678 target]” was tested, and the Kd [16] was 1.8 nM.
In the case of “GGGGAGGMT (double strand) [VEGF 1D target]”, the Kd [17] is reported as 2 nM.
Sequence “GGGGGHGCT (double strand) [ZEN-7A 1 target]” has a Kd [18] of 0.63 nM.
